No end group written: not given here. *: point of attachment. Dansyl = CN(C)c1cccc2c(S(=O)(=O)*)cccc12
Legend:
[1] = target: T1, human carbonic anhydrase II, HCAII (Homo sapiens, UniProt P00918); assay: Fluorescence emission spectra of dansyl-labelled peptides in absence and presence of HCAII; format: binding; conditions: 1 μM peptide, 50 μM HCAII, 10 mM HBS buffer pH 7.4, 298 K, excitation 335 nm
Protocol: Dotted lines represent spectra in the absence of HCAII, solid lines represent spectra where 50 μM HCAII has been added.
Spectra were recorded of 1 μM peptide solutions in 10 mM HBS buffer at pH 7.4 and 298 K, in the absence and presence of 50 μM HCAII, with 1 μM solutions of KE2-P and KE3-P as negative controls, FIG. 2.

[2] = target: T1, human carbonic anhydrase II, HCAII; assay: Surface plasmon resonance-based steady state affinity, immobilized HCAII; conditions: 1:1 binding model, peptide 40 nM to 10 μM
Protocol: [Taylor, P. W.; King, R. W.; Burgen, A. S. V. Biochemistry 1970, 9, 2638-2645] […] Lond. B 1976, 193, 107-125]. […] 1.4 equivalents of Id were allowed to react with 1 equivalent of KE2-P or KE3-P in 50 mM Tris-HCl buffer at pH 8.0 and room temperature.

Row | Compound | increase of fluorescence intensity upon addition of HCAII [1] | Kd [2]
1 | KE3-P: KE3 with dansyl fluorescent probe at the side chain of Lys15; control without ligand (NAADLEAKIRHLAEK(Dansyl)LAARGPCDAAQLAEQLARRFEAFARAG) | not affected | 
2 | NS(=O)(=O)c1ccc(C(=O)NCCCCCC(=O)O)cc1 [Ic] |  | 44 nM
